Data set [1] deals with T1, acid β-glucosidase (GCase; Cerezyme®) (Homo sapiens, UniProt P04062, R534H).
T1 construct: purchased Genzyme Corp
T1 sequence (P04062 40-536 R534H): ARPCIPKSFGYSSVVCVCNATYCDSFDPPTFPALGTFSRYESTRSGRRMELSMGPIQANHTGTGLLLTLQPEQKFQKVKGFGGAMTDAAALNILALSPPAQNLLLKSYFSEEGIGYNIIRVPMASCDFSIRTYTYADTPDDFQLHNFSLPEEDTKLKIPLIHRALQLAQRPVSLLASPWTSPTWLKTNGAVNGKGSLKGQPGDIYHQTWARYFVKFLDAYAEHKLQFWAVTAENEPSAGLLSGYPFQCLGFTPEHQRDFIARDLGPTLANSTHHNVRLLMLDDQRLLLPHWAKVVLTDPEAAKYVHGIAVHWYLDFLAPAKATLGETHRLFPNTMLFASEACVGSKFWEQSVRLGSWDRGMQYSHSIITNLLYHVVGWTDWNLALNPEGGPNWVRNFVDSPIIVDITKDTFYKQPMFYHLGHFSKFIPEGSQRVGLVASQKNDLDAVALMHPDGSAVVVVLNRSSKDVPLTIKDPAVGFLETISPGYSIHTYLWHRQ
Kind of data set: SYPRO Orange thermal stability assay (heat denaturation) of GCase. The data set is classed as binding. The following applies: pH 5.2 versus pH 7.4, no chaperone. The protocol:
FIG. 4 depicts the results of a thermal stability assay that utilizes heat to induce protein denaturation, which is monitored using a SYPRO Orange dye that fluoresces upon binding to hydrophobic amino acids (which are not exposed in a folded protein). Isofagomine increases acid β-glucosidase thermostability as evident by increases in melting temperature in a dose-dependent manner. The experiment was conducted at pH 7.4.
FIG. 8 depicts the stability of recombinant human GCase (Cerazyme®, Genzyme Corp.) at neutral pH (7.4) or acidic pH (5.2) in the presence or absence of 10 μM of IFG as determined in a thermal stability assay. The thermal stability assay utilizes heat to induce protein denaturation, which is monitored using a SYPRO Orange dye that fluoresces upon binding to hydrophobic amino acids (which are not exposed in a folded protein).
A thermal stability experiment as generally described in Example 1 was performed on three compositions of GCase (Cerezyme®):
A thermal stability experiment as generally described in Examples 1 and 4 was performed on three compositions of GCase (Cerezyme®):
Protein denaturation was monitored using SYPRO Orange dye which fluoresces when bound to exposed hydrophobic amino acids.

In data set [2] the target is T2, recombinant human GCase (Cerezyme®) (Homo sapiens, UniProt P04062, R534H).
T2 construct: purchased Genzyme Corp
T2 sequence (P04062 40-536 R534H): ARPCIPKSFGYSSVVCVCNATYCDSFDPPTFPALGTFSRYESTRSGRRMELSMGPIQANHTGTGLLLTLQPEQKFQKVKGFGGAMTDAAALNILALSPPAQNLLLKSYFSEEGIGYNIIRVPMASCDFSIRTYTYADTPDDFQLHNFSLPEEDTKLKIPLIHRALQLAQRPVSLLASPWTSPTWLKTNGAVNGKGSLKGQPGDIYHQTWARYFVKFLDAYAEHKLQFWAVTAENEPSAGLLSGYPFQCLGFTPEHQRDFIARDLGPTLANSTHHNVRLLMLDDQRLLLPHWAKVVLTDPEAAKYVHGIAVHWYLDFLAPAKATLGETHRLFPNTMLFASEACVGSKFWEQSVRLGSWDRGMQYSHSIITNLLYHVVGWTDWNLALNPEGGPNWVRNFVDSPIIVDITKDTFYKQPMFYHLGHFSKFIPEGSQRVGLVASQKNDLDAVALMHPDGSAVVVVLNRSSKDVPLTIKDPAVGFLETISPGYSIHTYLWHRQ
Put plainly: GCase activity in human plasma at 37° C. (4-MUG). The data set is classed as in vitro ADME. The following applies: human plasma, 0.5 μM GCase, no chaperone. The protocol: FIG. 10 depicts the effects of IFG on recombinant human GCase (GCase; Cerezyme®, Genzyme Corp.) activity in human plasma at 37° C. GCase activity was evaluated to assess the ability of an ASSC to prolong the activity of GCase in human plasma over time. Cerezyme (0.5 μM) was incubated in human plasma with increasing concentrations of IFG (3 μM, 30 μM, or 100 μM) at 37° C. over 4 hours. Samples were assayed for GCase enzyme activity using 4-MU-β-glucose at 0.25, 0.5, 1, 2 and 4 hours and the residual GCase activity was expressed as % of initial activity.
The activity of GCase (0.5 μM; Cerazyme®) at 37° C. in human plasma was assessed for increasing concentrations of IFG (3 μM, 30 μM, and 100 μM) as a function time using the substrate 4-MUG.

B1: GCase: recombinant human GCase (Cerezyme®, Genzyme Corp.) (protein, UniProt P04062 40-536, looked up)
Lysosomal acid …: ARPCIPKSFGYSSVVCVCNATYCDSFDPPTFPALGTFSRYESTRSGRRMELSMGPIQANHTGTGLLLTLQPEQKFQKVKGFGGAMTDAAALNILALSPPAQNLLLKSYFSEEGIGYNIIRVPMASCDFSIRTYTYADTPDDFQLHNFSLPEEDTKLKIPLIHRALQLAQRPVSLLASPWTSPTWLKTNGAVNGKGSLKGQPGDIYHQTWARYFVKFLDAYAEHKLQFWAVTAENEPSAGLLSGYPFQCLGFTPEHQRDFIARDLGPTLANSTHHNVRLLMLDDQRLLLPHWAKVVLTDPEAAKYVHGIAVHWYLDFLAPAKATLGETHRLFPNTMLFASEACVGSKFWEQSVRLGSWDRGMQYSHSIITNLLYHVVGWTDWNLALNPEGGPNWVRNFVDSPIIVDITKDTFYKQPMFYHLGHFSKFIPEGSQRVGLVASQKNDLDAVALMHPDGSAVVVVLNRSSKDVPLTIKDPAVGFLETISPGYSIHTYLWRRQ
modifications: imiglucerase
B1: the “Stability of GCase at acidic versus neutral pH (thermal stability assay)” value in data set [1] is “more stable at acidic (lysosomal) pH than at neutral pH”. In data set [2], the “Time by which GCase is completely inactive” value was no more than 1 h and the “Time by which most GCase is inactivated” value is no more than 30 min.
